In the data set the target is RAD51 WT (human, UniProt Q06609 1-339). Kind of data set: EMSA; 2 mM ATP, 10 mM Mg2+; 20 mM Hepes-NaOH pH 7.5, 0.1 mg/ml BSA, 1 mM DTT, 10 mM MgCl2, 150 mM KCl, 2 mM ATP or AMP-PNP or no nucleotide, 2.7 uM (nt) DNA, 37 C 10 min; 8% native PAGE in 1x TBE. Conditions: protein: recombinant; tags: N-terminal His-tag removed with thrombin; chain copies: 8; label: 5'-Cy5 on strand 1; blunt. A general note: Mobility shift assays separate free from complexed probe on a gel.
RAD51 WT, sequence (Q06609 whole entry): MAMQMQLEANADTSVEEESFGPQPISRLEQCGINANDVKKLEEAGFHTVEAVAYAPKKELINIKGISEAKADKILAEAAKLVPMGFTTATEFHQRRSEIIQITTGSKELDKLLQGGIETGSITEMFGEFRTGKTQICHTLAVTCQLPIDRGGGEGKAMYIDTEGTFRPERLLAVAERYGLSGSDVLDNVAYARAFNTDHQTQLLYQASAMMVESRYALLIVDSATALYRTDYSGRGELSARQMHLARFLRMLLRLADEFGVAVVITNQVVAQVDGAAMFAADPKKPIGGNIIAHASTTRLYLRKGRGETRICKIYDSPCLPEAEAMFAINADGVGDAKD

B1: Cy5-OL4/OL5 40-mer (dsDNA)
DNA 1: TAATACAAAATAAGTAAATGAATAAACAGAGAAAATAAAG
DNA 2: CTTTATTTTCTCTGTTTATTCATTTACTTATTTTGTATTA
Take B1: the binding result was “binds”.

Values taken from PMC10716581, “Fanconi anemia-associated mutation in RAD51 compromises the coordinated action of DNA-binding and ATPase activities”.
